Measurements reported in publication PMC3681697.
Where “and” joins values, the source holds several entries; their conditions need not be identical. Identical values can stand only once. Like-named read-outs stand apart in the source and are kept apart here.

Legend:
[1] = target: N-terminal His-tagged recombinant nebulin encompassing modules 160–164 (human) (UniProt P20929); assay: ELISA
[2] = target: N-terminal His-tagged recombinant nebulin encompassing modules 160–164 (human) (UniProt P20929); assay: ELISA; remark: listed apart in the source
[3] = target: full-length wild-type desmin (human) (UniProt P17661); assay: co-sedimentation
tailless desmin (human) = tailless desmin (human) (UniProt P17661); assay: co-sedimentation
[4] = target: mutant desmin E245D (human) (UniProt P17661); assay: co-sedimentation
desmin rod (human) = desmin rod (human) (UniProt P17661); assay: co-sedimentation
headless desmin (human) = headless desmin (human) (UniProt P17661); assay: co-sedimentation

mutant desmin E245D (from UniProt P17661 1-470) (natural protein)
Kd [1]: 8 nM | Kd [2]: 2 nM

N-terminal His-tagged recombinant nebulin encompassing modules 160–164 (from UniProt P20929 1-8525) (domain or fragment)
nebulin bound at later time points (percent of total protein) [3]: 35% | sedimentation value (percent in the pellet, equimolar mixture) (tailless desmin (human)): 29% | nebulin bound at later time points (percent of total protein) [4]: 20% | sedimentation value (percent in the pellet, equimolar mixture) (desmin rod (human)): 70% | sedimentation value (percent in the pellet, equimolar mixture) (headless desmin (human)): 57%

mutant desmin S46Y (from UniProt P17661 1-470) (natural protein)
Kd [1]: 19 nM

mutant desmin T453I (from UniProt P17661 1-470) (natural protein)
Kd [1]: 11 nM

full-length wild-type desmin (from UniProt P17661 1-470) (natural protein)
Kd [1]: 18 nM and 14 nM
